This note sets out measurements from patent US20240279281A1, “Peptide Inhibitors of Interleukin-23 Receptor” (Janssen Pharmaceutica NV, priority 2023, published 2024).

The target in the test is T1, interleukin-23 receptor (IL-23R), Q5VWK5.
T1 chain: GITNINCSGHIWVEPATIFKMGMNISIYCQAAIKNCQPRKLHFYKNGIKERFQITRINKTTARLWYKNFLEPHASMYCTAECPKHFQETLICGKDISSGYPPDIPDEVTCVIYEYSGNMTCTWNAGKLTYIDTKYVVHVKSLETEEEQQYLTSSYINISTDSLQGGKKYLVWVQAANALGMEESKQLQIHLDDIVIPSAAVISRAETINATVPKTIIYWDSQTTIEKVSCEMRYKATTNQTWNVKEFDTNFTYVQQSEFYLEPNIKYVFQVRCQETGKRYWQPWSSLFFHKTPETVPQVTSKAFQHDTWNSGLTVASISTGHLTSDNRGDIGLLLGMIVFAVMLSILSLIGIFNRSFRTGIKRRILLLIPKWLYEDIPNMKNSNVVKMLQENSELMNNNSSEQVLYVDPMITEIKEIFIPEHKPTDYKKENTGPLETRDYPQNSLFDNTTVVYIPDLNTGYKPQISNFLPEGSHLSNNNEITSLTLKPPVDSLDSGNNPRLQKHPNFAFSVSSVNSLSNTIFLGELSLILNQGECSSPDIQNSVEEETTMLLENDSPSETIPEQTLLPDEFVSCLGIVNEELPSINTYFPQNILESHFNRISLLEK
Description: cell-based or functional assay.

Starred links: 1 amine or outer side, 2 acyl side, 3 side chain; linkers in the order of their positions; H or OH if unused. Positions of bridges follow the written chain, without caps; N, C: chain ends. Non-standard residues stand in square brackets, D forms with d. No end group written: not given here. X1 = 3‑(7-(3-acetamidophenyl)-1H-indol-3-yl)‑2‑aminopropanoic acid, CC(=O)Nc1cccc(-c2cccc3c(CC(N[*:1])C(=O)[*:2])c[nH]c23)c1; X3 = 4‑(2-(4-(2-amino-2-carboxyethyl)phenoxy)ethyl)‑4‑methylmorpholin‑4‑ium, C[N+]1(CCOc2ccc(CC(N[*:1])C(=O)[*:2])cc2)CCOCC1; Trp(7-Me) = Cc1cccc2c(C[C@H](N)C(=O)O)c[nH]c12; d(hLys(Me3)) = C[N+](C)(C)CCCCC[C@@H](N)C(=O)O; 3Pal = N[C@@H](Cc1cccnc1)C(=O)O; Lipidated = not defined here; NMeK = CN[C@@H](CCCCN)C(=O)O; Pen = CC(C)(S)[C@H](N)C(=O)O; lipid = not defined here; Thp = NC1(C(=O)O)CCOCC1; Sar = CNCC(=O)O

B1: SEQ ID NO: 192 (peptide)
peptide: [Pen]ET[Trp(7-Me)]K(Lipidated)[Pen][2‑amino‑3‑(4-(2-aminoethoxy)phenyl)propanoic acid][2‑amino‑3‑(6-hydroxynaphthalen-2-yl)propanoic acid][Thp]K(Ac)N[3Pal][Sar]
modifications: disulfide 1-6 (inferred); ends not checked; also: K5: lipidated lysine, lipid not given here
Turning to B1, the PBMC pSTAT3 IC50 was below 1 nM.

B2: SEQ ID NO: 170 (peptide)
peptide: [Pen]ET[Trp(7-Me)]K(Ac)[Pen][2‑amino‑3‑(4-(2-aminoethoxy)phenyl)propanoic acid][2‑amino‑3‑(6-hydroxynaphthalen-2-yl)propanoic acid][Thp]K(Ac)N[3Pal][Sar]K(lipid)
modifications: disulfide 1-6 (inferred); ends not checked; also: K14 lipidated, lipid not given here
Regarding B2, the PBMC pSTAT3 IC50 was below 1 nM.

B3: SEQ ID NO: 190 (peptide)
peptide: R[Pen]NT[Trp(7-Me)]K(Ac)[Pen][2‑amino‑3‑(4-(2-aminoethoxy)phenyl)propanoic acid][2‑amino‑3‑(6-hydroxynaphthalen-2-yl)propanoic acid][Thp]EN[3Pal][NMeK]
modifications: disulfide 2-7 (inferred); not fully specified (residue 14); ends not checked; also: X14 lipidated N-methyl-lysine, lipid not given here
In the case of B3, the PBMC pSTAT3 IC50 was below 1 nM.

B4: SEQ ID NO: 165 (peptide)
peptide: [Pen]NT[Trp(7-Me)]K(Ac)[Pen][2‑amino‑3‑(4-(2-aminoethoxy)phenyl)propanoic acid][2‑amino‑3‑(6-hydroxynaphthalen-2-yl)propanoic acid][Thp]K(Ac)N[3Pal][Sar]K(lipid)
modifications: disulfide 1-6 (inferred); ends not checked; also: K14: lipidated lysine, lipid not given here
Molecule B4 yielded a PBMC pSTAT3 IC50 above 1 nM.

B5: SEQ ID NO: 186 (peptide)
peptide: [Pen]NT[Trp(7-Me)]K(Ac)[Pen][2‑amino‑3‑(4-(2-aminoethoxy)phenyl)propanoic acid][2‑amino‑3‑(6-hydroxynaphthalen-2-yl)propanoic acid][Thp]K(Lipidated)N[3Pal][Sar]
modifications: disulfide 1-6 (inferred); ends not checked; also: K10 lipidated lysine, lipid not given here
Turning to B5, the PBMC pSTAT3 IC50 was below 1 nM.

B6: SEQ ID NO: 181 (peptide)
peptide: [d(hLys(Me3))][Pen]NT[Trp(7-Me)]K(Ac)[Pen][2‑amino‑3‑(4-(2-aminoethoxy)phenyl)propanoic acid][2‑amino‑3‑(6-hydroxynaphthalen-2-yl)propanoic acid][Thp]K(Ac)N[3Pal][Sar]K(lipid)
modifications: disulfide 2-7 (inferred); ends not checked; also: K15 lipidated lysine, lipid not given here
Consider B6, for which the PBMC pSTAT3 IC50 is below 1 nM.

B7: SEQ ID NO: 193 (peptide)
peptide: [Pen]ET[Trp(7-Me)]K(Ac)[Pen][2‑amino‑3‑(4-(2-aminoethoxy)phenyl)propanoic acid][2‑amino‑3‑(6-hydroxynaphthalen-2-yl)propanoic acid][Thp]K(Lipidated)N[3Pal][Sar]
modifications: disulfide 1-6 (inferred); ends not checked; also: K10: lipidated lysine, lipid not given here
B7 returned a PBMC pSTAT3 IC50 below 1 nM.

B8: SEQ ID NO: 164 (peptide)
peptide: K(lipid)[Pen]NT[Trp(7-Me)]K(Ac)[Pen][2‑amino‑3‑(4-(2-aminoethoxy)phenyl)propanoic acid][2‑amino‑3‑(6-hydroxynaphthalen-2-yl)propanoic acid][Thp]K(Ac)N[3Pal][Sar]
modifications: disulfide 2-7 (inferred); ends not checked; also: K1: lipidated lysine, lipid not given here
B8 came in with a PBMC pSTAT3 IC50 below 1 nM.

B9: SEQ ID NO: 169 (peptide)
peptide: [Pen]ET[Trp(7-Me)]K(Ac)[Pen][2‑amino‑3‑(4-(2-aminoethoxy)phenyl)propanoic acid][2‑amino‑3‑(6-hydroxynaphthalen-2-yl)propanoic acid][Thp]K(Ac)N[3Pal][Sar]K(lipid)
modifications: disulfide 1-6 (inferred); ends not checked; also: K14 lipidated, lipid not given here
B9: the PBMC pSTAT3 IC50 is below 1 nM.

B10: SEQ ID NO: 156 (peptide)
peptide: R[Pen]NT[X1]K(Ac)[Pen][2‑amino‑3‑(4-(2-aminoethoxy)phenyl)propanoic acid][2‑amino‑3‑(6-hydroxynaphthalen-2-yl)propanoic acid][Thp]EN[3Pal][Sar]K
modifications: disulfide 2-7 (inferred); ends not checked; also: K15: lipidated lysine, lipid not given here
Consider B10, for which the PBMC pSTAT3 IC50 was below 1 nM.

B11: SEQ ID NO: 182 (peptide)
peptide: [Pen]NT[Trp(7-Me)]K(Ac)[Pen][2‑amino‑3‑(4-(2-aminoethoxy)phenyl)propanoic acid][2‑amino‑3‑(6-hydroxynaphthalen-2-yl)propanoic acid][Thp]K(Ac)N[3Pal][Sar]K(lipid)
modifications: disulfide 1-6 (inferred); ends not checked; also: K14 lipidated lysine, lipid not given here
B11 displayed a PBMC pSTAT3 IC50 below 1 nM.
As for R[Pen]NT[X1]K(Ac)[Pen][X3][2‑amino‑3‑(6-hydroxynaphthalen-2-yl)propanoic acid][Thp]EN[3Pal][Sar] (disulfide 2-7 (inferred); ends not checked) [SEQ ID NO: 161], the figure is below 10 pM.

B12: SEQ ID NO: 184 (peptide)
peptide: [d(hLys(Me3))][Pen]NT[Trp(7-Me)]K(Ac)[Pen][2‑amino‑3‑(4-(2-aminoethoxy)phenyl)propanoic acid][2‑amino‑3‑(6-hydroxynaphthalen-2-yl)propanoic acid][Thp]K(Lipidated)N[3Pal][Sar]
modifications: disulfide 2-7 (inferred); ends not checked; also: K11 lipidated lysine, lipid not given here
B12: the PBMC pSTAT3 IC50 is below 1 nM.

B13: SEQ ID NO: 198 (peptide)
peptide: [Pen]NT[Trp(7-Me)]K(Ac)[Pen][5‑(4-(2-amino-2-carboxyethyl)phenoxy)‑N,N,N‑trimethylpentan‑1‑aminium][2‑amino‑3‑(6-hydroxynaphthalen-2-yl)propanoic acid][Thp]K(Lipidated)N[3Pal][Sar]
modifications: disulfide 1-6 (inferred); ends not checked; also: K10: lipidated lysine, lipid not given here
In the case of B13, the PBMC pSTAT3 IC50 was below 1 nM.

B14: SEQ ID NO: 166 (peptide)
peptide: [(R)‑3‑carboxy‑2‑(4-(((R)-5-carboxy-5-hydrazineylpentyl)amino)-4-oxobutanamido)‑N,N,N‑trimethylpropan‑1‑aminium][Pen]NT[Trp(7-Me)]K(Ac)[Pen][2‑amino‑3‑(4-(2-aminoethoxy)phenyl)propanoic acid][2‑amino‑3‑(6-hydroxynaphthalen-2-yl)propanoic acid][Thp]EN[3Pal][Sar]K(lipid)
modifications: disulfide 2-7 (inferred); ends not checked; also: K15: lipidated lysine, lipid not given here
As to B14, the PBMC pSTAT3 IC50 was below 1 nM.

B15: SEQ ID NO: 191 (peptide)
peptide: R[Pen]NT[Trp(7-Me)]K(Ac)[Pen][2‑amino‑3‑(4-(2-aminoethoxy)phenyl)propanoic acid][2‑amino‑3‑(6-hydroxynaphthalen-2-yl)propanoic acid][Thp]EN[3Pal][Sar]K(Lipidated)
modifications: disulfide 2-7 (inferred); ends not checked; also: K15: lipidated lysine, lipid not given here
Turning to B15, the PBMC pSTAT3 IC50 was below 1 nM.

B16: SEQ ID NO: 185 (peptide)
peptide: [Pen]NT[Trp(7-Me)]K(Ac)[Pen][2‑amino‑3‑(4-(2-aminoethoxy)phenyl)propanoic acid][2‑amino‑3‑(6-hydroxynaphthalen-2-yl)propanoic acid][Thp]K(Lipidated)N[3Pal][Sar]
modifications: disulfide 1-6 (inferred); ends not checked; also: K10 lipidated lysine, lipid not given here
The molecule B16 showed a PBMC pSTAT3 IC50 below 1 nM.
